# System: HBEGF locus
# Type: cell-based, human
# Conditions: fold change in abundance of each repressor domain in the dXR library before vs after diphtheria toxin selection; dXR repression of the HBEGF gene; domains meeting p-value <0.01 and log2(fold change) >2
row,Molecule,Log2 (fold change)
1,"DOMAIN_27566 (protein, Muntiacus muntjak) QLTFEDVALSFSKEEWQIMDPNQKTLYIDVMREIYETVTSLGLKLKNDTGNDQPVSLSTSEIQPSGCKVLRKARMKVAQTT",2.7825
2,"DOMAIN_28158 (protein, listed as Odocoileus virginianus) QLTFEDVALSFSKEEWQIMDPNQKTLYIDVMQEIYETVTSLGLKLKNDTGNDQPVSLSTSEIQPSGCKVLRKARMKVAQTT",3.0762
3,"DOMAIN_31935 (protein, listed as Rhinolophus ferrumequinum) EKIEDMAVSLIREEWLLDPSQKDLRRDNRTENYRNMFSLGGETRSENRELASKQVASAGVQPHGETAARCNGDVTGALEHGEARDLLGSRVERQRAN",3.5544
4,"DOMAIN_32223 (protein, listed as Homo sapiens) GPQGARRQAFLAFGDVTVDFTQKEWRLLSPAQRALYREVTLENYSHLVSLGILHSKPELIRRLEQGEVPWGEERRRRPGP",2.8836
5,"DOMAIN_31340 (protein, listed as Homo sapiens) LTFEDVAVYFSEEEWQLLNPLEKTLYNDVMQDIYETVISLGLKLKNDTGNDHPISVSTSEIQTSGCEVSKKTRMKIAQKTMGRE",2.8261
6,"DOMAIN_28823 (protein, Microcaecilia unicolor) QVPVTFEDITVYFSREQWEYLDEGQKELYREVMKENYETLISLGTGPEGFNPEVLARIKLEEESHVWDPKEPGQKEVTRSY",2.331
7,"DOMAIN_29066 (protein, listed as Xenopus tropicalis) VKFDEVAVVFSEDEWNLLTDQQRGLYMEVMKENYEHLIYLGFEVPVILSLLQDGGGIGSDTVTQSKSQQVAGAEESKSSVTLEGPIPETLPS",2.6393
8,"DOMAIN_26999 (protein, listed as Xenopus laevis) AQDPVTFDDISVYFSRDEWALLDAGQKQLYREVMAENYRALVSVGYVMEEPGLVSHIEHEQQGSPIRSRSSLHAGRHCGFI",3.4317
9,"DOMAIN_29434 (protein, listed as Mus caroli) MTYDDVHVNFTGEEWALLSPSQKRLYKDVMLETYRNLTAIGYNWEDHNSEHFQHSRRHGRHERRHTGEKPSVYTQCGKVFAYH",2.2707
10,"DOMAIN_26886 (protein, listed as Homo sapiens) QLQETMTFKDVEVTFSQDEWGWLDSAQRNLYRDVMLENYRNMASLVGPFTKPALISWLEAREPWGLNMQAAQPKGNPVAAP",3.3209
11,"DOMAIN_26501 (protein, listed as Geotrypetes seraphini) AQVPVTFEDIAVYFSQEEWEDLEEQQRELYKDVMKENYETLSSLGPPAVTPDIISHIERGEEPYIRFESGPEEREIGKSSC",2.6513
12,"DOMAIN_26925 (protein, listed as Alligator sinensis) PETVVSFEDVAVRFSPDEWHLLDDGQRRLYRDVLRENYSHVRSLGFPVPDLAVIFRMERGEEPWPPGLPAGTKSDDQEEER",3.2248
13,"DOMAIN_27032 (protein, listed as Alligator mississippiensis) PETVVSFEDVAVRFSPDEWHLLDDGQRRLYRDVLRENYSHVRSLGFPVPDLAVIFRMERGEEPWPPGLPAGEWPWGQGQAP",3.4805
14,"DOMAIN_27579 (protein, Muntiacus muntjak) SQELLTFKDISVDFTQEEWGQLAPAHRNLYREVMLENYGNLVSVAGCQLSKPSVISQLEKGEEPWMTEKEGPGDPSSDLKS",3.8878
15,"DOMAIN_28051 (protein, listed as Neomonachus schauinslandi) SQGLLTFKDISVDFTQEEWGQLAPAHRNLYREVMLENYGNLVSVAGYQLSKPSVISQLEKGQEPWMTEKEGPGDSSSDLKN",2.4353
16,"DOMAIN_28085 (protein, listed as Enhydra lutris) SQELLTFKDISVDFTQEEWGQLPLAHRNLYREVMLENYGNLVSVAGYQLSKPSVISQLEKGQEPWMTEKEVPEDPSSDLRT",2.2962
17,"DOMAIN_27902 (protein, Vulpes vulpes) SQELLTFKDVSVDFTQEEWGQLSLAHRNLYREVMLENYGNLVSVAGYQLSKPSVISQLEKGQEPWMTEKKGPGDPSPDLKN",2.9068
18,"DOMAIN_26463 (protein, listed as Pelodiscus sinensis) DSMRVTFEEVAVYFTPGQGALLGPAQRALYRDVMQENYEAVTSLGFPVPKPELIARLERGEEPWVPDLQAREEREIPRGTC",2.8812
19,"DOMAIN_26496 (protein, listed as Geotrypetes seraphini) QMPVKFEDIAVSFSQEEWEYLDEEQKELYREVMKENYQTLISLGTGSPSITPDIISHIERGEEPYIREEPGSEEREPGRSS",2.7991
20,"DOMAIN_29900 (protein, Nomascus leucogenys) VAFEDVAVNFTQEEWALLNSSQKNLYREVMQETCRNLASVGSKWKDQNIEDHFEKPGKNIRKHMVQKLCESKEGSQYGEVVSQIPNL",2.1583
21,"DOMAIN_32327 (protein, listed as Homo sapiens) NMSQASVSFQDVTVEFTREEWQHLGPVERTLYRDVMLENYSHLISVGYCITKPKVISKLEKGEEPWSLEDEFLNQRYPGY",3.1024

# Same assay, conditions: high-throughput screen of dXR repression of the HBEGF gene; abundance of each domain in the library before vs after diphtheria toxin selection; listed domains met p-value <0.01 and log2(fold change) >2
row,Molecule,Log2 (fold change)
1,"DOMAIN_26299 (protein, listed as Geotrypetes seraphini) QIPVIFEDIVIYFSQEEWKDLEEWQKELYKDVMKENYQTLISLGTGFPTPPPDIISHIERGEEPYIRDELESEKRETGKRG",2.3704
2,"DOMAIN_26306 (protein, listed as Geotrypetes seraphini) QMPIKFEDIAVSFSQEEWEYLNEEQKELYREVMKENYQTLISLGTGSPPVTPDIISHIERGEEPYIREEPGSEEREPGRSS",2.6178
3,"DOMAIN_26407 (protein, listed as Colinus virginianus) PSVPVTFRDVFVQFSRDEWALLDDEQKELHQSVMQSNYEMLMSLYCDLAKPEVSLQMERGEPCLPAEPDLQGTAVSLNPAA",2.9778
4,"DOMAIN_26305 (protein, listed as Geotrypetes seraphini) QQMQVTFEDVAVSFSQEEWEYLDEGQKELYREVMKENYETVVSLGSPASTPKIISCIECGEEAYIRGEPGSEGRETGKSSC",3.0107

# Same assay, conditions: high-throughput screen of dXR repression of the HBEGF gene; change in abundance of each domain in the library before and after diphtheria toxin selection
row,Molecule,Log2 (fold change)
1,"DOMAIN_2629 (protein, listed as Pongo sp.) MFPPARGKELLSFEDVAMYFTREEWGHLSWGQKDLYRDVMLENYRNMVLLGFQFPKPEVICQLENWDEQWILDLPRAGNRK",3.092
2,"DOMAIN_737 (protein, listed as Pan paniscus) MAFEDVAVYFSQEEWGLLDTAQRALYRRVMLDNFALVASLGLSTSRPRVVIQLERGEEPWVPSGTDTTLSRTTYRRRNPGS",4.544
3,"DOMAIN_4121 (protein, listed as Macaca mulatta) MAFEDVAVYFSQEEWGLLDTAQRALYRRVMLDNFALVASLGLSTSRPRVVIQLERGEEPWVPSGTDTILSRNTYRRRNPGS",3.3195
4,"DOMAIN_4516 (protein, listed as Callithrix sp.) MAAIPLKAQCQETVTFEDVAVHFTKTEWTGLSPAQRALYRSVMLENYGNLTAMGYLVPKPALISLLEGGDMAWGLEAQDDP",2.7603
5,"DOMAIN_2499 (protein, listed as Pongo sp.) MNSEVIVDPIQGQVNFEDVFVYFSQEEWVLLDEAQRLLYRDVMLENFALMASLGHTSFMSHIGASLVMGSEPWVPDWVDMI",3.114
6,"DOMAIN_980 (protein, Pan troglodytes) MPLKAQYQEMVTFEDVAVHFTKTEWTGLSPAQRALYRSVMLENFGNLTALGYPVPKPALISLLEGGDMAWGLEAQDDPPAE",2.9297
7,"DOMAIN_4120 (protein, listed as Macaca mulatta) MAFEDVAVYFSQEEWGLLDTAQRALYRHVMLENFTLVTSLGLSTSRPHVVIQLERGEEPWVPSGKDMTLARNTYRRLNAGS",3.3237
8,"DOMAIN_3463 (protein, listed as Hylobates sp.) MMTAVSLTTRPQESVAFEDVAVYFTAKEWDIMVPAERALYRDVMLENYEAVAFVVPPTSKPALVSHLEQGKESCFTRPQGV",3.5462
9,"DOMAIN_3328 (protein, listed as Hylobates sp.) MGLVSFKDVAVDFTQEEWQQLDPSQRTLYRDVMLENYSHLVSMGYPVSKPDVISKLEQGEEPWIIKGDISNWIYPDEYQAD",2.3718
10,"DOMAIN_2754 (protein, listed as Hylobates sp.) MAGEAEAQLDPSLQGLVMFEDVTVYFSREEWGLLNVTQKGLYRDVMLENFALVSSLGLAPSRSPVFTQLEDDEQSWVPNWV",3.7601
11,"DOMAIN_2563 (protein, listed as Pongo sp.) MGPQGARRQAFLAFGDVTVDFTQKEWRLLSPTQRALYREVTLENYSHLVSLGILHSKPELIRRLEQGEAPWGEERRRRPGP",2.8105
12,"DOMAIN_3832 (protein, listed as Macaca mulatta) TMSCSRAGGITGCIKYSTASVAFRDVAVDFTQEEWRLLSPAQRTLHREVMLETYNHLVSLEIPSSKPKLIAQLERGEEPWR",2.7334
